From US20230183355A1 (UNIVERSITY OF WESTERN ONTARIO, published 2023)

T1: full-length rat CD11d on transfected JY cells (rat, UniProt Q9QYE7 20-1161)
T1 construct: whole, on cells
T1 sequence (looked up): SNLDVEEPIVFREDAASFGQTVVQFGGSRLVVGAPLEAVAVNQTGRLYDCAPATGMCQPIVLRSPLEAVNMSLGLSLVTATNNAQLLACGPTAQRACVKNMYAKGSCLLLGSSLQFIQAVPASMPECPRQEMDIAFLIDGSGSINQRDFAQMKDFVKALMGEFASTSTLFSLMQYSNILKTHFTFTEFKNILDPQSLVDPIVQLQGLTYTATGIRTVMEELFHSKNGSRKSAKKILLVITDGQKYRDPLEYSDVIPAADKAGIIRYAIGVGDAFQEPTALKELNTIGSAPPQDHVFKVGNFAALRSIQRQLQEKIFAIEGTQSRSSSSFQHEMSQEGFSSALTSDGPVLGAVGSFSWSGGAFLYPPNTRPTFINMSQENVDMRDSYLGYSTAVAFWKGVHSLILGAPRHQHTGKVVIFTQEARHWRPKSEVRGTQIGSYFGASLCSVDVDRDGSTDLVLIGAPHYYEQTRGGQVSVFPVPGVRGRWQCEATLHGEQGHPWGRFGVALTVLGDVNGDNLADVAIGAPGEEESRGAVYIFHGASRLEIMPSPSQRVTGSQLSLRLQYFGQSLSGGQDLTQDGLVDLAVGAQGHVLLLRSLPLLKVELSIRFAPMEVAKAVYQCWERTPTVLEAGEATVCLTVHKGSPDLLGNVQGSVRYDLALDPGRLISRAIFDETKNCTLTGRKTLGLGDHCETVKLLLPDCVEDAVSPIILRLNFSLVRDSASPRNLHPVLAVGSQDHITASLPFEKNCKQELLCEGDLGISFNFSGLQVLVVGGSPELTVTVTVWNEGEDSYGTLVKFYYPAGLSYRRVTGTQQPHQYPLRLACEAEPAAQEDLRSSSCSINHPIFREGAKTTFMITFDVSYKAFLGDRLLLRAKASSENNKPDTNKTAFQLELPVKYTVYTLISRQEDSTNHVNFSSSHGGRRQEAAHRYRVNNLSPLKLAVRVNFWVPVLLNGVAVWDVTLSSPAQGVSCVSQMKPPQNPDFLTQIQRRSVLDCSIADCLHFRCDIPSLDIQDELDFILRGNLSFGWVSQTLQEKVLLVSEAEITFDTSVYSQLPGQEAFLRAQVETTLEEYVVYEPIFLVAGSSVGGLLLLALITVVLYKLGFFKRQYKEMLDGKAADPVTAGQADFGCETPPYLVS


Assays:
[1] = molecular target: T1, full-length rat CD11d on transfected JY …; assay: FACS on JY cells transfected with full-length rat CD11d; non-linear regression, one-site binding model
Experimental: (§1) Binding affinity of the exemplified CD11d antibodies of Table 2 were determined, for both human and rat CD11d, by Fluorescence Activated Cell Sorting (FACS) analysis. JY cells expressing human CD11d/CD18 or JY cells transfected with full-length rat CD11d are suspended in FACS buffer with goat IgG (1 mg/ml). The cell solution is added to wells of 96-well round-bottom plates at a density of 4.0×10⁴ cells in 50 μL solution. Each of the exemplified CD11d antibodies of Table 2 (25 μL) or isotype control antibody (25 μL) is added to a respective well at 1:3 dilutions at final concentrations ranging between 4.6 ng/mL to 10 μg/mL. The plates are incubated on ice for 30 minutes, after which 200 μL of FACS buffer is added, plates are centrifuged at 2000 rpm for 3 minutes, and the liquid is discarded. Cells are re-suspended with 50 μL of a phycoerythrin-conjugated antibody (Jackson ImmunoResearch p/n. 709-116-149) at a 1:150 dilution and incubated on ice for 20 minutes. FACS buffer is added (200 μL) to each well and plates are spun at 2000 rpm for 3 minutes. The liquid is discarded, cells are washed with 200 μL FACS buffer, re-suspended in 120 μL of 1% paraformaldehyde in PBS, and transferred to 96-well flat-bottom plates.
(§2) Stained cells are analyzed by flow cytometry with the gate set on the isotype control antibody. The specific percent gated is calculated as [% gated (test antibody)−% gated (isotype control antibody)]. Kd determinations were made based on a non-linear regression, one-site binding model. Following procedures essentially as described above, binding affinities of the exemplified CD11d antibodies of Table 2 to human and rat CD11d were obtained.

[2] = molecular target: T2, human CD11d/CD18 expressed on JY cells (human, UniProt Q13349 18-1161; P05107 23-769); assay: FACS on JY cells expressing human CD11d/CD18; non-linear regression, one-site binding model
T2 construct: whole, on cells
Experimental: as §1, §2

T2 sequence (Q13349 18-1161, chain 1 of 2): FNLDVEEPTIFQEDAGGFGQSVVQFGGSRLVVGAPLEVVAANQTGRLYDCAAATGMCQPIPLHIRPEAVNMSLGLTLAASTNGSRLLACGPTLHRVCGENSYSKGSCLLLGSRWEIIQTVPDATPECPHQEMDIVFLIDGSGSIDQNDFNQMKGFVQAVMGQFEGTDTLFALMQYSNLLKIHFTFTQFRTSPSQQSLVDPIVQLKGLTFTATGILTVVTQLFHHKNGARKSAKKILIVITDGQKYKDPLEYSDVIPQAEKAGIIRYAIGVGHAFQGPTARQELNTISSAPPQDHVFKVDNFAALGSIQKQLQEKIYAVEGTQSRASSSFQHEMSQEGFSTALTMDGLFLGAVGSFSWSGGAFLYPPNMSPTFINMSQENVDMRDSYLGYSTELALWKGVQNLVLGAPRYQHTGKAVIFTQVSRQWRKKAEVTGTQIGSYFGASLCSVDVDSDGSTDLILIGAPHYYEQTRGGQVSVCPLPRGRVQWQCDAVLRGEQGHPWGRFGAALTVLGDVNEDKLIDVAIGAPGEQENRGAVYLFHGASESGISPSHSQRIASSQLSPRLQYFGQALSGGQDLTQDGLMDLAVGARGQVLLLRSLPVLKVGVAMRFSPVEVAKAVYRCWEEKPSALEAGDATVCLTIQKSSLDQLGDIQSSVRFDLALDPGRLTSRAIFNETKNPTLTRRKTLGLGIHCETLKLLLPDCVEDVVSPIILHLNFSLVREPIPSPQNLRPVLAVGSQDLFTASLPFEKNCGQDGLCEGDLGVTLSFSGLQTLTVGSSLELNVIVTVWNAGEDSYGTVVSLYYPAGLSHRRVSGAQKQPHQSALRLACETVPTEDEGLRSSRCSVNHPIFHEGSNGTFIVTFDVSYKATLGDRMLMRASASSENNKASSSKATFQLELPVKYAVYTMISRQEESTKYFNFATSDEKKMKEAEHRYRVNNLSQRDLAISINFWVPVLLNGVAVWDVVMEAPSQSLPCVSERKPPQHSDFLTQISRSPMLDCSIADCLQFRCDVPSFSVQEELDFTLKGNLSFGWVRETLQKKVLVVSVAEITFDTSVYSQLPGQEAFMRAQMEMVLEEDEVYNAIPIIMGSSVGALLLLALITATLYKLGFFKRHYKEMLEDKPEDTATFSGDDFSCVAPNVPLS
T2 sequence (P05107 23-769, chain 2 of 2): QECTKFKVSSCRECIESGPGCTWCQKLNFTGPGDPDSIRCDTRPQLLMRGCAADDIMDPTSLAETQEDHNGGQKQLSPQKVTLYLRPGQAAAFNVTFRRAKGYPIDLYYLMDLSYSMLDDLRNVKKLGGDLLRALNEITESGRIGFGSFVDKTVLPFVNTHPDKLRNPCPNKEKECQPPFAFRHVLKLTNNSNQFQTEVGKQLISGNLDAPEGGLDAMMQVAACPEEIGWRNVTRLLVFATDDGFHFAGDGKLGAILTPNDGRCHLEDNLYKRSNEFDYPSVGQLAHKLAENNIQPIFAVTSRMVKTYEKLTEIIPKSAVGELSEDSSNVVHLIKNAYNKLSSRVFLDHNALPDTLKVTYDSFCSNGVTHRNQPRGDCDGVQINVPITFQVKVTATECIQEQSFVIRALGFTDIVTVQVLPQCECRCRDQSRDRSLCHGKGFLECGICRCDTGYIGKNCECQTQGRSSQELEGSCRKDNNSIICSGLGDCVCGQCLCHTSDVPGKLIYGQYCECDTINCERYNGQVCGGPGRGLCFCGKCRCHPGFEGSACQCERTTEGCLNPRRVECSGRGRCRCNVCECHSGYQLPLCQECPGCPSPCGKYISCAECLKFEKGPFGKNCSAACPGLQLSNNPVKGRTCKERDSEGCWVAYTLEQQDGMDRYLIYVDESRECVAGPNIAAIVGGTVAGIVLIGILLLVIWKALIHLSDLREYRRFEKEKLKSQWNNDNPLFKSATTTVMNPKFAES

Binder	Kd [1]	Kd [2]
Exemplified Antibody 1 (antibody, human IgG4 S228P, kappa, F234A L235A, V domains shown, Humanized antibody, full LC (kappa) and HC (IgG4)) VH: QVQLVQSGAEVKKPGASVKVSCKASGYTFTDYNMHWVRQAPGQGLEWMGYIYPYNGDTGYNQNFKSRVTMTRDTSTSTVYMELSSLRSEDTAVYYCARGLIYYGYLNVAMDSWGQGTLVTVSS VL: DIQMTQSPSSLSASVGDRVTITCRASQSIGTRIHWYQQKPGKAPKLLIYFASESISGVPSRFSGSGSGTDFTLTISSLQPEDFATYYCQQSKIWPTTFGGGTKLEIKR	1.45 nM	0.436 nM
Exemplified Antibody 3 (antibody, human IgG4 S228P, kappa, F234A L235A, V domains shown, Humanized antibody, full LC (kappa) and HC (IgG4)) VH: QVQLVQSGAEVKKPGASVKVSCKASGYTFTDYNMHWVRQAPGQGLEWMGYIYPYSGDTGYNQNFKSRVTMTRDTSTSTVYMELSSLRSEDTAVYYCARGLIYYGYLNVAMDSWGQGTLVTVSS VL: DIQMTQSPSSLSASVGDRVTITCRASQSIGTRIHWYQQKPGKAPKLLIYFASESISGVPSRFSGSGSGTDFTLTISSLQPEDFATYYCQQSKIGPTTFGGGTKLEIKR	0.677 nM	0.304 nM
Exemplified Antibody 2 (antibody, human IgG4 S228P, kappa, F234A L235A, V domains shown, Humanized antibody, full LC (kappa) and HC (IgG4)) VH: QVQLVQSGAEVKKPGASVKVSCKASGYTFGDYNMHWVRQAPGQGLEWMGYIYPYNGDTGYNQNFKSRVTMTRDTSTSTVYMELSSLRSEDTAVYYCARGLVHYGYLNVAMDSWGQGTLVTVSS VL: DIQMTQSPSSLSASVGDRVTITCRASRSIGTRIHWYQQKPGKAPKLLIYFASGSISGVPSRFSGSGSGTDFTLTISSLQPEDFATYYCQQSKIFPTTFGGGTKLEIKR	0.133 nM	0.303 nM

Results, then the binder that gave them:

Kd [1]	Kd [2]	Binder
1.18 nM	0.344 nM	Exemplified Antibody 5 (antibody, human IgG4 S228P, kappa, F234A L235A, V domains shown, Humanized antibody, full LC (kappa) and HC (IgG4)) VH: QVQLVQSGAEVKKPGASVKVSCKASGYTFTDYNMHWVRQAPGQGLEWMGYIYPYSGDTGYNQNFKSRVTMTRDTSTSTVYMELSSLRSEDTAVYYCARGLIYYGYLNVAMDSWGQGTLVTVSS VL: DIQMTQSPSSLSASVGDRVTITCRASESIGTRIHWYQQKPGKAPKLLIYFASESISGVPSRFSGSGSGTDFTLTISSLQPEDFATYYCQQSKIWPTTFGGGTKLEIKR
0.247 nM	0.333 nM	Exemplified Antibody 4 (antibody, human IgG4 S228P, kappa, F234A L235A, V domains shown, Humanized antibody, full LC (kappa) and HC (IgG4)) VH: QVQLVQSGAEVKKPGASVKVSCKASGYTFYDYNMHWVRQAPGQGLEWMGYIYPYNGDTGYNQNFKSRVTMTRDTSTSTVYMELSSLRSEDTAVYYCARGLIHYGYLNVAMDSWGQGTLVTVSS VL: DIQMTQSPSSLSASVGDRVTITCRASRSIGTRIHWYQQKPGKAPKLLIYFASGSISGVPSRFSGSGSGTDFTLTISSLQPEDFATYYCQQSKIFPTTFGGGTKLEIKR
